Laboratory results: article PMC9482650, “Quantitative fragmentomics allow affinity mapping of interactomes” (Nature Communications, 2022)

T1: NHERF3_3, Q5T2W1
T1 sequence (Q5T2W1 238-333, limits assumed, looked up): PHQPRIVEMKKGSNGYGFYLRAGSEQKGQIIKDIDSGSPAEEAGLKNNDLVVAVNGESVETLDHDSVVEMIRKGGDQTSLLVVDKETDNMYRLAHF

T2: MPP6, Q9NZW5
T2 sequence (Q9NZW5 125-219, limits assumed, looked up): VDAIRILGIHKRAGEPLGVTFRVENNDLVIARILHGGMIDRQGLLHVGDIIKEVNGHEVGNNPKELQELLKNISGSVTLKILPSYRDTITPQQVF

T3: CARD11, Q9BXL7
T3 sequence (Q9BXL7 662-765, limits assumed, looked up): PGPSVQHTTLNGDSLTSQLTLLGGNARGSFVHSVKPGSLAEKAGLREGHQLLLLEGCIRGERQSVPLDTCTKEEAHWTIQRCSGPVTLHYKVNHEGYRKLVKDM

T4: APBA1_2, Q02410
T4 sequence (Q02410 742-832, limits assumed, looked up): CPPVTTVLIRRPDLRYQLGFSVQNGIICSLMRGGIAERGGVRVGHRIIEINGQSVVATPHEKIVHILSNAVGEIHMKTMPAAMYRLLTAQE

T5: PARD3B_1, Q8TEW8
T5 sequence (Q8TEW8 196-299, limits assumed, looked up): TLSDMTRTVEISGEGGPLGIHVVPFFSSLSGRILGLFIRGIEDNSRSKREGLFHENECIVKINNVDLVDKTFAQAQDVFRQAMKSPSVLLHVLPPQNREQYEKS

T6: NHERF3_1, Q5T2W1
T6 sequence (Q5T2W1 4-100, limits assumed, looked up): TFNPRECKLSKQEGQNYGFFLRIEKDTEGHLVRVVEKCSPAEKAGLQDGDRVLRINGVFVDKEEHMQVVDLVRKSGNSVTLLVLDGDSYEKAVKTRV

T7: SNTG2, Q9NY99
T7 sequence (Q9NY99 68-166, limits assumed, looked up): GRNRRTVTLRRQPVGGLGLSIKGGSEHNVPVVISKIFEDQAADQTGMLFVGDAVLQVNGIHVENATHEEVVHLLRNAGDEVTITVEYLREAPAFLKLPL

T8: SNTG1, Q9NSN8
T8 sequence (Q9NSN8 52-150, limits assumed, looked up): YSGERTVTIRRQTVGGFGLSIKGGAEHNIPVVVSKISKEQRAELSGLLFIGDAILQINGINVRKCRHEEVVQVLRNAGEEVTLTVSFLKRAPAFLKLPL

T9: LRRC7, Q96NW7
T9 sequence (Q96NW7 1440-1537, limits assumed, looked up): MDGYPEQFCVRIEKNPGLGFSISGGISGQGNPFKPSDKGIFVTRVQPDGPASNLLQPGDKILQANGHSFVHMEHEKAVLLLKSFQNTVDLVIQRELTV

B1: CLDN7, O95471 (peptide)
chain: PKSNSSKEYV
B2: JAM2, P57087 (peptide)
chain: DFKHTKSFII
B3: GRID2, O43424 (peptide)
chain: GNDPDRGTSI
B4: KIT, P10721 (peptide)
chain: SQPLLVHDDV
B5: JAM1, Q9Y624 (peptide)
chain: EFKQTSSFLV

These binders were tested against T1, NHERF3_3, Q5T2W1 (assay: holdup assay). Settings: plain residues with an end cap or a label only (N-terminal biotin on a linker: ado-ado).
Design: key: below the threshold = too weak to quantify, mostly under pKd 3.1 to 4

pKd	Binder
below the threshold	B1
below the threshold	B2
below the threshold	B3
below the threshold	B4
below the threshold	B5

The binders below were run against DLG1_3, Q12959 (assay: holdup assay). Settings: plain residues with an end cap or a label only (N-terminal biotin on a linker: ado-ado).
Design: key: below the threshold = too weak to quantify, mostly under pKd 3.1 to 4

Chain of DLG1_3, Q12959 (Q12959 457-571): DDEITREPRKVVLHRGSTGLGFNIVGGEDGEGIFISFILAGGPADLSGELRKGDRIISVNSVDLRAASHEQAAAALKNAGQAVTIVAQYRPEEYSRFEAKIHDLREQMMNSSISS

pKd	Binder
below the threshold	B1
below the threshold	B2
below the threshold	B3
below the threshold	B4
below the threshold	B5

What follows are binders tested against SCRIB_3, Q14160 (assay: holdup assay). Settings: plain residues with an end cap or a label only (N-terminal biotin on a linker: ado-ado).
Design: key: below the threshold = too weak to quantify, mostly under pKd 3.1 to 4

Chain of SCRIB_3, Q14160 (Q14160 999-1103): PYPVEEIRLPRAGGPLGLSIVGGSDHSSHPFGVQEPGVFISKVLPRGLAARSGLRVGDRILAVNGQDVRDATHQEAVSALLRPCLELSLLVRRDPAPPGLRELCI

pKd	Binder
below the threshold	B1
3.65	B2
4.29	B3
below the threshold	B4
below the threshold	B5

The binders below were run against IL16_1, Q14005 (assay: holdup assay). Settings: plain residues with an end cap or a label only (N-terminal biotin on a linker: ado-ado).
Design: key: below the threshold = too weak to quantify, mostly under pKd 3.1 to 4

Chain of IL16_1, Q14005 (Q14005 210-306): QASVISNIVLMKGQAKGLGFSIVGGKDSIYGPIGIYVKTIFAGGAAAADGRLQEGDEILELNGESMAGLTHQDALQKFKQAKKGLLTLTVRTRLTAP

pKd	Binder
below the threshold	B1
below the threshold	B2
below the threshold	B3
below the threshold	B4
below the threshold	B5

These binders were tested against SCRIB_1, Q14160 (assay: holdup assay). Settings: plain residues with an end cap or a label only (N-terminal biotin on a linker: ado-ado).
Design: key: below the threshold = too weak to quantify, mostly under pKd 3.1 to 4

Chain of SCRIB_1, Q14160 (Q14160 718-814): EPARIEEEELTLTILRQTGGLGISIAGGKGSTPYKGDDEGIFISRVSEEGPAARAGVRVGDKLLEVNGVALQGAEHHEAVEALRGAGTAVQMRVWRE

pKd	Binder
below the threshold	B1
below the threshold	B2
below the threshold	B3
below the threshold	B4
below the threshold	B5

The binders below were run against T2, MPP6, Q9NZW5 (assay: holdup assay). Settings: plain residues with an end cap or a label only (N-terminal biotin on a linker: ado-ado).
Design: key: below the threshold = too weak to quantify, mostly under pKd 3.1 to 4

pKd	Binder
below the threshold	B1
below the threshold	B2
below the threshold	B3
below the threshold	B4
below the threshold	B5

Each binder was assayed against T3, CARD11, Q9BXL7 (assay: holdup assay). Settings: plain residues with an end cap or a label only (N-terminal biotin on a linker: ado-ado).
Design: key: below the threshold = too weak to quantify, mostly under pKd 3.1 to 4

pKd	Binder
below the threshold	B1
below the threshold	B2
below the threshold	B3
below the threshold	B4
below the threshold	B5

These binders were tested against PTPN3, P26045 (assay: holdup assay). Settings: plain residues with an end cap or a label only (N-terminal biotin on a linker: ado-ado).
Design: key: below the threshold = too weak to quantify, mostly under pKd 3.1 to 4

Chain of PTPN3, P26045 (P26045 505-587): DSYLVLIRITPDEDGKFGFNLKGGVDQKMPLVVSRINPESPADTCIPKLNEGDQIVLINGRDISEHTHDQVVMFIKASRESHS

pKd	Binder
below the threshold	B1
3.81	B2
4.52	B3
below the threshold	B4
below the threshold	B5

What follows are binders tested against T4, APBA1_2, Q02410 (assay: holdup assay). Settings: plain residues with an end cap or a label only (N-terminal biotin on a linker: ado-ado).
Design: key: below the threshold = too weak to quantify, mostly under pKd 3.1 to 4

pKd	Binder
3.69	B1
below the threshold	B2
3.65	B3
3.54	B4
3.5	B5

Each binder was assayed against LNX1_1, Q8TBB1 (assay: holdup assay). Settings: plain residues with an end cap or a label only (N-terminal biotin on a linker: ado-ado).
Design: key: below the threshold = too weak to quantify, mostly under pKd 3.1 to 4

Chain of LNX1_1, Q8TBB1 (Q8TBB1 261-371): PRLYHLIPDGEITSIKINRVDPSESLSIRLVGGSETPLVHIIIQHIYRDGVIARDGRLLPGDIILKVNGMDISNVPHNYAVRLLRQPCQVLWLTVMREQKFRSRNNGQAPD

pKd	Binder
below the threshold	B1
below the threshold	B2
3.67	B3
below the threshold	B4
3.6	B5

These binders were tested against LDB3, O75112 (assay: holdup assay). Settings: plain residues with an end cap or a label only (N-terminal biotin on a linker: ado-ado).
Design: key: below the threshold = too weak to quantify, mostly under pKd 3.1 to 4

Chain of LDB3, O75112 (O75112 1-94): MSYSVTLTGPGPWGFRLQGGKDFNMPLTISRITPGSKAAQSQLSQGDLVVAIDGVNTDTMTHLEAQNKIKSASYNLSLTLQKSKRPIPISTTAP

pKd	Binder
below the threshold	B1
below the threshold	B2
below the threshold	B3
below the threshold	B4
below the threshold	B5

These binders were tested against DLG2_2, Q15700 (assay: holdup assay). Settings: plain residues with an end cap or a label only (N-terminal biotin on a linker: ado-ado).
Design: key: below the threshold = too weak to quantify, mostly under pKd 3.1 to 4

Chain of DLG2_2, Q15700 (Q15700 189-283): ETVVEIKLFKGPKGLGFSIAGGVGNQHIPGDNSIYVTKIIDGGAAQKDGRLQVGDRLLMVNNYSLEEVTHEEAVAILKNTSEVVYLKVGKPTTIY

pKd	Binder
below the threshold	B1
below the threshold	B2
below the threshold	B3
below the threshold	B4
below the threshold	B5

The binders below were run against T5, PARD3B_1, Q8TEW8 (assay: holdup assay). Settings: plain residues with an end cap or a label only (N-terminal biotin on a linker: ado-ado).
Design: key: below the threshold = too weak to quantify, mostly under pKd 3.1 to 4

pKd	Binder
below the threshold	B1
4.95	B2
below the threshold	B3
below the threshold	B4
4.72	B5

Each binder was assayed against DLG5_1, Q8TDM6 (assay: holdup assay). Settings: plain residues with an end cap or a label only (N-terminal biotin on a linker: ado-ado).
Design: key: below the threshold = too weak to quantify, mostly under pKd 3.1 to 4

Chain of DLG5_1, Q8TDM6 (Q8TDM6 617-713): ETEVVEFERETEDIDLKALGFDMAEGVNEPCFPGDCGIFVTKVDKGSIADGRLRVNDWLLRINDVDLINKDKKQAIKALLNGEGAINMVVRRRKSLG

pKd	Binder
below the threshold	B1
below the threshold	B2
below the threshold	B3
below the threshold	B4
below the threshold	B5

The binders below were run against LIMK2, P53671 (assay: holdup assay). Settings: plain residues with an end cap or a label only (N-terminal biotin on a linker: ado-ado).
Design: key: below the threshold = too weak to quantify, mostly under pKd 3.1 to 4

Chain of LIMK2, P53671 (P53671 143-248): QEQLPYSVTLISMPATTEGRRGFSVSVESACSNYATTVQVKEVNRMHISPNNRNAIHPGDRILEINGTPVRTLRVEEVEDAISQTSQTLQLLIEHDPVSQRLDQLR

pKd	Binder
below the threshold	B1
below the threshold	B2
below the threshold	B3
below the threshold	B4
below the threshold	B5

What follows are binders tested against NHERF4_4, Q86UT5 (assay: holdup assay). Settings: plain residues with an end cap or a label only (N-terminal biotin on a linker: ado-ado).
Design: key: below the threshold = too weak to quantify, mostly under pKd 3.1 to 4

Chain of NHERF4_4, Q86UT5 (Q86UT5 464-550): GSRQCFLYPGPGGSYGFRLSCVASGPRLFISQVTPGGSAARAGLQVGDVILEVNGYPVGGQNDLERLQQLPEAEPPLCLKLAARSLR

pKd	Binder
below the threshold	B1
below the threshold	B2
below the threshold	B3
below the threshold	B4
below the threshold	B5

Each binder was assayed against T6, NHERF3_1, Q5T2W1 (assay: holdup assay). Settings: plain residues with an end cap or a label only (N-terminal biotin on a linker: ado-ado).
Design: key: below the threshold = too weak to quantify, mostly under pKd 3.1 to 4

pKd	Binder
below the threshold	B1
below the threshold	B2
3.64	B3
below the threshold	B4
4.16	B5

These binders were tested against GRASP, Q7Z6J2 (assay: holdup assay). Settings: plain residues with an end cap or a label only (N-terminal biotin on a linker: ado-ado).
Design: key: below the threshold = too weak to quantify, mostly under pKd 3.1 to 4

Chain of GRASP, Q7Z6J2 (Q7Z6J2 96-193): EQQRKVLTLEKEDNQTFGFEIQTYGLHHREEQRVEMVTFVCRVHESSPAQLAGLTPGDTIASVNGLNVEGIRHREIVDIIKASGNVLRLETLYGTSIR

pKd	Binder
below the threshold	B1
below the threshold	B2
below the threshold	B3
below the threshold	B4
3.56	B5

Each binder was assayed against AHNAK1, Q09666 (assay: holdup assay). Settings: plain residues with an end cap or a label only (N-terminal biotin on a linker: ado-ado).
Design: key: below the threshold = too weak to quantify, mostly under pKd 3.1 to 4

Chain of AHNAK1, Q09666 (Q09666 4-100): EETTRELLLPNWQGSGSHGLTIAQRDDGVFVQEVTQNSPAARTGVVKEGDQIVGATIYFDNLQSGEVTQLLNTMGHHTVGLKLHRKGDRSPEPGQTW

pKd	Binder
below the threshold	B1
below the threshold	B2
below the threshold	B3
below the threshold	B4
below the threshold	B5

These binders were tested against IL16_4, Q14005 (assay: holdup assay). Settings: plain residues with an end cap or a label only (N-terminal biotin on a linker: ado-ado).
Design: key: below the threshold = too weak to quantify, mostly under pKd 3.1 to 4

Chain of IL16_4, Q14005 (Q14005 1229-1329): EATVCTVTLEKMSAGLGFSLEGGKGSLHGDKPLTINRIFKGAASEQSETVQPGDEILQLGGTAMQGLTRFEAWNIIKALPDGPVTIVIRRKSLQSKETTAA

pKd	Binder
below the threshold	B1
below the threshold	B2
below the threshold	B3
below the threshold	B4
below the threshold	B5

The binders below were run against GRIP2_6, Q9C0E4 (assay: holdup assay). Settings: plain residues with an end cap or a label only (N-terminal biotin on a linker: ado-ado).
Design: key: below the threshold = too weak to quantify, mostly under pKd 3.1 to 4

Chain of GRIP2_6, Q9C0E4 (Q9C0E4 648-740): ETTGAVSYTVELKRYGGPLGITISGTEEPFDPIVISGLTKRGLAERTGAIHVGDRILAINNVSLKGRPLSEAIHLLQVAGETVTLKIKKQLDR

pKd	Binder
below the threshold	B1
4.41	B2
below the threshold	B3
below the threshold	B4
4.35	B5

The binders below were run against T7, SNTG2, Q9NY99 (assay: holdup assay). Settings: plain residues with an end cap or a label only (N-terminal biotin on a linker: ado-ado).
Design: key: below the threshold = too weak to quantify, mostly under pKd 3.1 to 4

pKd	Binder
below the threshold	B1
below the threshold	B2
below the threshold	B3
below the threshold	B4
below the threshold	B5

What follows are binders tested against T8, SNTG1, Q9NSN8 (assay: holdup assay). Settings: plain residues with an end cap or a label only (N-terminal biotin on a linker: ado-ado).
Design: key: below the threshold = too weak to quantify, mostly under pKd 3.1 to 4

pKd	Binder
below the threshold	B1
below the threshold	B2
below the threshold	B3
below the threshold	B4
below the threshold	B5

The binders below were run against PICK1, Q9NRD5 (assay: holdup assay). Settings: plain residues with an end cap or a label only (N-terminal biotin on a linker: ado-ado).
Design: key: below the threshold = too weak to quantify, mostly under pKd 3.1 to 4

Chain of PICK1, Q9NRD5 (Q9NRD5 17-115): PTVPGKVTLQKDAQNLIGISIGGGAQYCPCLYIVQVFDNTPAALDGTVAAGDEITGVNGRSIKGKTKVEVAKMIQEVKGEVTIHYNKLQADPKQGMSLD

pKd	Binder
below the threshold	B1
below the threshold	B2
below the threshold	B3
4.06	B4
4.27	B5

These binders were tested against TJP1_3, Q07157 (assay: holdup assay). Settings: plain residues with an end cap or a label only (N-terminal biotin on a linker: ado-ado).
Design: key: below the threshold = too weak to quantify, mostly under pKd 3.1 to 4

Chain of TJP1_3, Q07157 (Q07157 416-512): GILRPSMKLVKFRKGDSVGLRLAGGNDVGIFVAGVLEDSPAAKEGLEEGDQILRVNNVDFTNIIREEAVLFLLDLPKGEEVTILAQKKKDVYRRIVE

pKd	Binder
below the threshold	B1
below the threshold	B2
below the threshold	B3
below the threshold	B4
below the threshold	B5

The binders below were run against T9, LRRC7, Q96NW7 (assay: holdup assay). Settings: plain residues with an end cap or a label only (N-terminal biotin on a linker: ado-ado).
Design: key: below the threshold = too weak to quantify, mostly under pKd 3.1 to 4

pKd	Binder
below the threshold	B1
below the threshold	B2
below the threshold	B3
below the threshold	B4
below the threshold	B5

Each binder was assayed against MAGI2_3, Q86UL8 (assay: holdup assay). Settings: plain residues with an end cap or a label only (N-terminal biotin on a linker: ado-ado).
Design: key: below the threshold = too weak to quantify, mostly under pKd 3.1 to 4

Chain of MAGI2_3, Q86UL8 (Q86UL8 600-682): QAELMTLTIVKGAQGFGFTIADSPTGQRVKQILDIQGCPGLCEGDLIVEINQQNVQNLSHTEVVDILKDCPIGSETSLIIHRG

pKd	Binder
below the threshold	B1
below the threshold	B2
below the threshold	B3
below the threshold	B4
3.54	B5

Each binder was assayed against Inadl_3, Q8NI35 (assay: holdup assay). Settings: plain residues with an end cap or a label only (N-terminal biotin on a linker: ado-ado).
Design: key: below the threshold = too weak to quantify, mostly under pKd 3.1 to 4

Chain of Inadl_3, Q8NI35 (Q8NI35 359-469): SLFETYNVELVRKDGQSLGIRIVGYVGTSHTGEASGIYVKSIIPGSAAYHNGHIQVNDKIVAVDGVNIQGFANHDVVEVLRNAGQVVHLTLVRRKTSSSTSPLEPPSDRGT

pKd	Binder
below the threshold	B1
4.45	B2
below the threshold	B3
below the threshold	B4
4.65	B5
